What all share (test): SPOT array
Experiment [1] concerns the target T1, Yhr016c SH3 (YSC84_YEAST), P32793.
T1 chain: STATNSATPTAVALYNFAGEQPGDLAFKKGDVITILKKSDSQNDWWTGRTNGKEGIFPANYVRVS

Experiment [2] has as its target T2, Boi1 SH3 (BOI1_YEAST), P38041.
T2 chain: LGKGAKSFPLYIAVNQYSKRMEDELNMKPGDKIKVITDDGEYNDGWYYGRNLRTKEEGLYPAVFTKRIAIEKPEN

In experiment [3] the target is Sho1 SH3 (SHO1_YEAST), P40073.
Experiment [4] has as its target T3, Myo5 SH3 (MYO5_YEAST), Q04439.
T3 chain: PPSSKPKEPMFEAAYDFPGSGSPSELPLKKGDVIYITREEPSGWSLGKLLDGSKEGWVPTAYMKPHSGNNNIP

The target in experiment [5] is T4, Yfr024 SH3 (LSB3_YEAST), P43603.
T4 chain: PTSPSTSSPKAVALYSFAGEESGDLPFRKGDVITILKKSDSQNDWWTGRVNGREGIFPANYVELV

In experiment [6] the target is T5, Boi2 SH3 (BOI2_YEAST), P39969.
T5 chain: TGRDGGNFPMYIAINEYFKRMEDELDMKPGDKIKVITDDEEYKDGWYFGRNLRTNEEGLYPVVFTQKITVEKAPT

Experiment [7] addresses T6, Rvs167 SH3 (RV167_YEAST), P39743.
T6 chain: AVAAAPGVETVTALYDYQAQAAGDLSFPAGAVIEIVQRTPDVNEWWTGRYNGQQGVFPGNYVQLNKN

The text below walks through data of PMC314469, “Protein Interaction Networks by Proteome Peptide Scanning” (PLoS Biology, 2004).

Chain of Sho1 SH3 (SHO1_YEAST), P40073 (P40073 295-366): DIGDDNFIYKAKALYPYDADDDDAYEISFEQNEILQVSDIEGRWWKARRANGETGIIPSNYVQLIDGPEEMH

As for FASEKGAPFFPNKT [YPR144C 134-147], the normalised SPOT signal, Boehringer light units (BLU); mean over the file's lines of this peptide was 40.9 in experiment [1]; 60.7 in experiment [2]; 12.3 in experiment [3]; 359 in experiment [4]; 264 in experiment [5]; 269 in experiment [6]. In experiment [7], this molecule gave a normalised SPOT signal, Boehringer light units (BLU); mean over the file's lines of this peptide of 585.
EWEEKLTPAGPLSP [YDR402C 463-476]: the normalised SPOT signal, Boehringer light units (BLU); mean over the file's lines of this peptide came out at 32.1 in experiment [1]; 65.4 in experiment [2]; 38.2 in experiment [3]; 297 in experiment [4]; 80.9 in experiment [5]; 13.1 in experiment [6]. Also, the normalised SPOT signal, Boehringer light units (BLU); mean over the file's lines of this peptide in experiment [7] amounted to 46.8.
FENRKHQPFTPKGM [YKL171W 669-682]: the normalised SPOT signal, Boehringer light units (BLU); mean over the file's lines of this peptide is 33.1 in experiment [1]; 616 in experiment [2]; 126 in experiment [3]; 211 in experiment [4]; 574 in experiment [5]; 0.7 in experiment [6]. For the same molecule, the normalised SPOT signal, Boehringer light units (BLU); mean over the file's lines of this peptide in experiment [7] worked out at 148.
On to FANIKREPVHPEIR [YPR101W 28-41], for which the normalised SPOT signal, Boehringer light units (BLU); mean over the file's lines of this peptide in experiment [1] was 116; in experiment [2], 96; in experiment [3], 76; in experiment [4], 188; in experiment [5] it was 74.4; in experiment [6], 21.7. The molecule also returned a normalised SPOT signal, Boehringer light units (BLU); mean over the file's lines of this peptide in experiment [7] of 40.
Turning to FEEDKMTPSTPVRS [YJR092W 847-860], the normalised SPOT signal, Boehringer light units (BLU); mean over the file's lines of this peptide in experiment [1] was 3920; in experiment [2], 12; in experiment [3], 65; in experiment [4] it was 248; in experiment [5] it was 11100; in experiment [6] it was 7.9. The molecule further yielded a normalised SPOT signal, Boehringer light units (BLU); mean over the file's lines of this peptide in experiment [7] of 59.7.
As for EYFPREYPKDPVSE [YDR124W 275-288], the normalised SPOT signal, Boehringer light units (BLU); mean over the file's lines of this peptide was found to be 22.8 in experiment [1]; 456 in experiment [2]; 31.2 in experiment [3]; 272 in experiment [4]; 93.1 in experiment [5]; 5.6 in experiment [6]. Besides, the normalised SPOT signal, Boehringer light units (BLU); mean over the file's lines of this peptide in experiment [7] is 104.
